Data taken from patent US20080107658A1 (AstraZeneca / MedImmune, published 2008).
Residue numbers refer to the chain shown, from its start. Values belong to the binder of their own block, whether it stands above or below them.

Assays:
[1] = molecular target: T1, human nerve growth factor (beta-NGF) (human, UniProt P01138 122-241); test: cell-based or functional assay
[2] = molecular target: T2, rat nerve growth factor (beta-NGF) (rat, UniProt P25427 122-241); test: purified scFv, inhibition of rat NGF binding to TrkA fusion protein
T2 sequence (P25427 122-241): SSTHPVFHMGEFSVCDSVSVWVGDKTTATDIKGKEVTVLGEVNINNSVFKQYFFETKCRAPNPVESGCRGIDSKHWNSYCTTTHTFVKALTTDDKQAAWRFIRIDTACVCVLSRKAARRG

[3] = molecular target: T1, human nerve growth factor (beta-NGF); test: purified scFv, inhibition of human NGF binding to TrkA fusion protein
[4] = molecular target: T1, human nerve growth factor (beta-NGF); test: cell-based or functional assay; remark: listed apart in the source
[5] = molecular target: mouse nerve growth factor (mouse, UniProt P01139 122-241); test: cell-based or functional assay
Sequence of mouse nerve growth factor (P01139 122-241): as the sequence (P25427 122-241) above, with G40A, K50R, P61S, D94E, A117T counted along it

[6] = molecular target: T2, rat nerve growth factor (beta-NGF); test: cell-based or functional assay

T1 sequence (P01138 122-241): as the sequence (P25427 122-241) above, with T3S, V6I, M9R, T37M, A60D, E65D, T92M, D94G, A117V, G120A counted along it

B9: 1145D1 human IgG4 (antibody, V domains shown)
VH: EVQLVQSGAEVKKPGSSVKVSCKASGGTFSTYGISWVRQAPGQGLEWIGGIIPIFDTSNSAQSFQGRVTITADESTSTAYMEVSSLRSDDTAVYYCASSSRIYDFRTLYSTYYDMDVWGQGTMVTVSS
VL: QAVLTQPSSVSTPPGQKVTISCSGSSSNIGNNYVSWYQQLPGTAPKLLIYDNNKRPSGISDRFSGSKSGTSATLGIAGLQTGDEADYYCGTWDSSLSAWVFGGGTKLTVL
IC50, FLIPR calcium mobilisation [4]: 0.36 nM
IC50, PC12 cell survival [4]: 0.66 nM
IC50, FLIPR calcium mobilisation [5]: 0.24 nM
IC50, FLIPR calcium mobilisation [6]: 0.17 nM

B11: 1131H2 human IgG4 (antibody, V domains shown)
VH: B9 VH with S17T, S58G, F105L, R106N, T107P, L108S, Y109L, S110T, T111A
VL: B9 VL with S25T, S60P, A77T
IC50, FLIPR calcium mobilisation [4]: 0.27 nM
IC50, PC12 cell survival [4]: 0.58 nM
IC50, FLIPR calcium mobilisation [5]: 0.12 nM
IC50, FLIPR calcium mobilisation [6]: 0.11 nM

B13: 1218H5 scFv (scFv, V domains shown)
VH: B9 VH with E10V, S58G, N59S, F105L, R106N, T107P, L108S, Y109L, S110T, T111A
VL: B9 VL with I29T, P41S, S60P, A77T
notes: also called LOT1218H05
IC50 [2]: 0.03 nM
IC50 [3]: < 0.01 nM

B14: 1146D7 scFv (scFv, V domains shown)
VH: B9 VH with S58G, F105L, R106N, T107P, L108S, Y109L, S110T, T111A
VL: B9 VL with K17E, S27T, S60P, A77T
notes: also called LOT1146D07
IC50 [2]: 0.02 nM
IC50 [3]: 0.23 nM

B16: 1160E3 scFv (scFv, V domains shown)
VH: B9 VH with V18A, S58G, F105L, R106N, T107P, L108S, Y109L, S110T, T111A
VL: B9 VL with S26N, S60P, A77T
notes: also called LOT1160E03
IC50 [2]: 0.22 nM
IC50 [3]: 0.14 nM

B20: 1131H2 scFv (scFv, V domains shown)
VH: B9 VH with S17T, S58G, F105L, R106N, T107P, L108S, Y109L, S110T, T111A
VL: B9 VL with S25T, S60P, A77T
notes: also called LOT1131H02
IC50 [2]: 0.09 nM
IC50 [3]: < 0.01 nM

B21: 1147D2 scFv (scFv, V domains shown)
VH: EVQLVQSGAEVKKPGSSVRISCKASGGTFSTYGVSWVRQAPGQGLEWIGGIIPIFDTGNSAQSFQGRVTITADESTSTAYMEVSSLRSDDTAVYYCASSSRIYDLNPSLTAYYDMDVWGQGTMVTVSS
VL: B9 VL with I59V, S60P, A77T
notes: also called LOT1147D02
IC50 [2]: 0.1 nM
IC50 [3]: < 0.01 nM

B22: 1147G9 scFv (scFv, V domains shown)
VH: B21 VH with R19K, I20V, T31A, V34I, D56N
VL: B9 VL with I20V, S60P, A77T
notes: also called LOT1147G09
IC50 [2]: 0.01 nM
IC50 [3]: 0.25 nM

B23: 1150F1 scFv (scFv, V domains shown)
VH: B21 VH with R19K, I20V, V34I, G66D, S84G, Q120H
VL: B9 VL with S60P, A77T
notes: also called LOT1150F01
IC50 [2]: 0.16 nM
IC50 [3]: 0.2 nM

Continued, in another order:

IC50, calcium mobilisation assay [1]: 73 nM
B1: 1028F8 human IgG4 (antibody, V domains shown)
VH: EVQLLESGGGLVQPGGSLRLSCAASGFTFSSYAMSWVRQAPGKGLEWVSAIIGSGGSTYYADSVKGRFTISRDNSKNTLYLQMNSLRAEDTAVYYCARAGGSGWFENWFDPWGRGTLVTVSS
VL: QSVLTQPPSVSVSPGQTATITCSGDNLEDKYVSWYQQKAGQSPVLVIFQDSKRPSEIPERFSGSNSGNTATLTISGTLSGDEADYYCQVWDAGIDPWAFGGGTKLTVL

IC50, calcium mobilisation assay [1]: 85 nM
B2: 1033B2 human IgG4 (antibody, V domains shown)
VH: QVQLQQSGAEVKKPGSSVKLSCKASGGTFSSFGISWVRQAPGQGLEWLGRIIPFLGPADYAQKFQGRVTITADESRSTAYMELSSLTSEDTAVYFCARSFYDILTGYYEGVFYYYMDVWGQGTMVTVSS
VL: QSVLIQPASVSGSPGQSITISCTGTSSDVGGYNYVSWYQQHPGKAPKLMIYEGSKRPSGVSNRFSGSKSGNTASLTISGLQAEDEADYYCSSYTTRSTRVFGGGTKLTVL

IC50, calcium mobilisation assay [1]: ~3700 nM
B3: 1057F11 human IgG4 (antibody, V domains shown)
VH: EVQLVETGGGVVQPGTSLRLSCAASGFTFSSHGMHWVRQAPGQGLEWVAHAWSDGSNKYYADSLKGRFTISRDNSRNTLYLQMNSLRAEDTAVYYCARDGQQLANYAMDVWGRGTTVTVSS
VL: DIQMTQSPSFLSASVGDRVTITCRASQGINSYLAWYQQIPGKAPNLLIYAASTLQSGVPSRFSGSGSGTEFTLTISSLQPEDFATYYCQQLNTYPFTFGPGTKVEIK

IC50 [2]: 269 nM
IC50 [3]: 94 nM
B4: 1021E5 scFv (scFv, part only; not given: Linker and tags, V domains shown, not shown: another chain or arm of the molecule; small tags and cut ends)
VH: B9 VH with S58G, F105Y, R106A, T107G, L108G, Y109D, S110H, T111Y
VL: B9 VL with S60P, A77T

IC50, FLIPR calcium mobilisation [4]: 0.36 nM
IC50, FLIPR calcium mobilisation [5]: 0.24 nM
IC50, FLIPR calcium mobilisation [6]: 0.21 nM
B5: 1147D2 human IgG4 (antibody, V domains shown)
VH: B21 VH
VL: B9 VL with I59V, S60P, A77T
IC50, PC12 cell survival [4]: 0.51 nM

IC50, FLIPR calcium mobilisation [4]: 0.39 nM
IC50, FLIPR calcium mobilisation [5]: 0.33 nM
IC50, FLIPR calcium mobilisation [6]: 0.25 nM
B6: 1132A9 human IgG4 (antibody, V domains shown)
VH: B9 VH with D56G, S58G, R106E, T107P, L108S, Y109L, S110I, T111Y
VL: B9 VL with S60P, A77T
IC50, PC12 cell survival [4]: 0.9 nM

IC50, FLIPR calcium mobilisation [4]: 0.38 nM
IC50, FLIPR calcium mobilisation [5]: 0.31 nM
IC50, FLIPR calcium mobilisation [6]: 0.33 nM
B7: 1146D7 human IgG4 (antibody, V domains shown)
VH: B21 VH with R19K, I20V, V34I
VL: B9 VL with K17E, S27T, S60P, A77T
IC50, PC12 cell survival [4]: 0.48 nM

IC50, FLIPR calcium mobilisation [4]: 0.35 nM
IC50, FLIPR calcium mobilisation [5]: 0.16 nM
IC50, FLIPR calcium mobilisation [6]: 0.13 nM
B8: 1132H9 human IgG4 (antibody, V domains shown)
VH: B21 VH with R19K, I20V, V34I
VL: B9 VL with N28D, S57T, S60P, A77T
IC50, PC12 cell survival [4]: 0.55 nM

IC50, FLIPR calcium mobilisation [4]: 0.31 nM
IC50, FLIPR calcium mobilisation [5]: 0.16 nM
IC50, FLIPR calcium mobilisation [6]: 0.14 nM
B10: 1134D9 human IgG4 (antibody, V domains shown)
VH: B21 VH with R19K, I20V, V34I, T69A
VL: B9 VL with S60P, A77T, S95G
IC50, PC12 cell survival [4]: 0.54 nM

IC50, FLIPR calcium mobilisation [4]: 0.32 nM
IC50, FLIPR calcium mobilisation [5]: 0.19 nM
IC50, FLIPR calcium mobilisation [6]: 0.15 nM
B12: 1150F1 human IgG4 (antibody, V domains shown)
VH: B21 VH with R19K, I20V, V34I, G66D, S84G, Q120H
VL: B9 VL with S60P, A77T
IC50, PC12 cell survival [4]: 0.47 nM

IC50 [2]: 0.2 nM
IC50 [3]: 0.14 nM
B15: 1134D9 scFv (scFv, V domains shown)
VH: B21 VH with R19K, I20V, V34I, T69A
VL: B9 VL with S60P, A77T, S95G
notes: also called LOT1134D09

IC50 [2]: 0.68 nM
IC50 [3]: 0.54 nM
B17: 1132H9 scFv (scFv, V domains shown)
VH: B21 VH with R19K, I20V, V34I
VL: B9 VL with N28D, S57T, S60P, A77T
notes: also called LOT1132H09

IC50 [2]: 1.24 nM
IC50 [3]: 1.93 nM
B18: 1133C11 scFv (scFv, V domains shown)
VH: B21 VH with R19K, I20V, V34I
VL: B9 VL with S60P, A77T
notes: also called LOT1133C11

IC50 [2]: 0.29 nM
IC50 [3]: 0.11 nM
B19: 1165D4 scFv (scFv, V domains shown)
VH: B21 VH with R19K, I20V, V34I
VL: B9 VL with G30E, S60P, A77T
notes: also called LOT1165D04
